Results as given in paper PMC7647119.

Molecular target: T1, MADS29-His (Oryza sativa) (UniProt Q6H711)
T1 sequence: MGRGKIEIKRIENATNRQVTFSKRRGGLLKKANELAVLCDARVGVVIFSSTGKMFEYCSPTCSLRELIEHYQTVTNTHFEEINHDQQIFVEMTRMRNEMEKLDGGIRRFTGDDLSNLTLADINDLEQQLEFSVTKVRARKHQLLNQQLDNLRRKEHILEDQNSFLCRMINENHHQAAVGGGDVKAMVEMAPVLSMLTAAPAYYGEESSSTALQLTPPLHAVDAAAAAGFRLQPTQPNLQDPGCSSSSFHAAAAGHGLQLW
Assay: EMSA
Details: LightShift Chemiluminescent EMSA Kit per manufacturer; buffer, salt, pH and temperature not stated

Sequence | binding
ATTTTGCTCATTTGGTATAGATCTTTCTTACATATATAAGACTGATCTCTATAGTGGTGA (double strand) [POsAsp1 -1412 CArG probe] | binds
TCTATAGACTAGTCAGCATTTTTTTTAGCTCCATATTTGGATTTGTCAACTTCAGAAAAG (double strand) [POsAsp1 -770 CArG probe] | binds
